Two substances from US20220387586A1 can be followed below.

As a reminder, the % Inhibition is the relative decrease from the control value, in per cent.

The target in assay [1] is human Fc tagged human Lag3 extra cellular domain (human) (UniProt P18627). Briefly: FACS, inhibition of biotinylated Lag3:Fc binding to MHC-II on A375 cells (competitor MHC-II); control at 10 µg/ml. (In general: In flow cytometry, cells or beads pass a laser one at a time.)
Assay [2] addresses cynomolgus LAG3 on cells (cynomolgus). Briefly: flow cytometry on activated cynomolgus PBMC, 10 µg/ml; control (only 2nd Ab (hu): 7.62).

human Fc tagged human Lag3 extra cellular domain (human), sequence (P18627 29-450): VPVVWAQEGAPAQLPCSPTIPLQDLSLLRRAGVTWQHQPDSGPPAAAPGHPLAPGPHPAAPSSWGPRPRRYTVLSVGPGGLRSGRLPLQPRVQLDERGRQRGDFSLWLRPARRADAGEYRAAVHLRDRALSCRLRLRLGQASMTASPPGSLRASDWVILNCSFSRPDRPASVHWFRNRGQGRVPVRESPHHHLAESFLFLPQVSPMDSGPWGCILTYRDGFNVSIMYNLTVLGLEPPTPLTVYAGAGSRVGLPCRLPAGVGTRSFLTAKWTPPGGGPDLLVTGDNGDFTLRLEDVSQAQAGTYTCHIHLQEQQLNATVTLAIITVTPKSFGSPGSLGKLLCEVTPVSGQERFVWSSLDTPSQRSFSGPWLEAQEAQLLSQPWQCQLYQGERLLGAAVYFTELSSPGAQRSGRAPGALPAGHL

On to “human IgG1 isotype control (Sigma, cat.no. #I5154) (antibody)”, for which the % Inhibition in assay [1] was -2.9%. DP47 (human isotype) (antibody): in assay [2], the % positive cyno cells (PBLs) after CD3/CD28 activation was 9.19%.
